Data published in PMC4756307.

biological target: T1, CodY (6His-CodY) (Streptococcus suis serotype 2 (strain SC19?)) (UniProt A0A0H3MTH0); assay: EMSA; details: EMSA: 1 ug PCR product with 0-2200 ng CodY in binding buffer (Beyotime; composition, pH and salt not given), 30 min at 37 C, native PAGE, ethidium bromide …
T1 sequence: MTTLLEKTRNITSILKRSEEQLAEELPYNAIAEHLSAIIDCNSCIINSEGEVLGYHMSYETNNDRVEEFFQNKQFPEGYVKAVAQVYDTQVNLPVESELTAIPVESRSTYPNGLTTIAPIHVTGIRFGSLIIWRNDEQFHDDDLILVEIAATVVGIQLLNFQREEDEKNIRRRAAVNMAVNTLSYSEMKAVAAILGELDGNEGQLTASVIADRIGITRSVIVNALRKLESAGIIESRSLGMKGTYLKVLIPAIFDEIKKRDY

Sequence | binding
AATACAAGCGACGATTCCCTTCGTTGCGATCGGGCTTAATCAAGCCTTGATCTTCATAGTAACGAATTTGACGAGCAGTTAAATCTGTCAACTTCATCACACTACCGATCGGAAAGATAGCTAAGGAACGACGAAACTCTTTTTCTCTCATAATGAACTCCTTTCTGCCTACCATTATAGGAGAATTTTTTTTTGAGGTCAATAGGTGATGTTATATTTTATAACATCATTTATCCTGAAAACGTTTTTTTATAACATTCACATCATAATTAACTAGAATCGCAATGAAAACTCC (double strand) [glnR promoter] | binds
ATCTCGGTCTTTGGTTGTTTGGCTTTACAGCTCTATACTTTGTGGCAGCTTATCTGATTGCCCTCAATCCATCTCAAATCTTAAATAGTATCGGACGTATTTTAACCCCTGTTTTTGCGATTTTGATTGTGATTTTGGTGGTGCTTGGTATTGTTAAGTACGGATCAACAAGTCCGTTACCAGCTTCGGAAGCTTACTCAGCAGGACAGGCATTTGGTACAGGATTTATCGAGGGATACAATACACTCGACGCACTTGCTTCTATTGCTTTTAGTGTCGTAGCAGTAAATACCT (double strand) [bap2 promoter] | binds
GGACGTATGCGCCTCTGCTTATGCCAGAAGTCATGAGGTAAATCTCCCTAAAAATTGGGTAGAAAAGCAGATTAAACTTCCACCAATCTATTGAAGATCGTGTGAAGAAGCAGGCTTTAGAAGCAACAAGCCCTGAGACTATTCGAAAGAAATCTAGGGCTATTTTTTCTAATCGGCTATCAGAAGTGAAGTAGCGATCTTTATTAGTGTTCTTTTACTACTTAAGGAAAACCAAGCTGCTCCCTCAAGACTTTATGGGAGCGATTTACAGTCATTT (double strand) [neuB (neu) promoter] | no binding
TCTGTATTTATCATTGTAGTCCTATCTGCAACAGTAGAAAATTATATTGTAAATTTAAGTTTTGTATTTATGCCAATATGTTTTTGTTTATTAAATTCTATATCTACTATGGAATCAACTATTAACAAACAACTGCAAACATAAATTGGCAGGAATAGAGTTTTGAGTTGCTATTAATTTGGTAGAGCATATGTTCTATAGGTGGCAAGATAGAAGATAGTATTTTTTACATGATGATTTTTATGATAGCA (double strand) [cps2J promoter] | binds
